Paper PMC4513881

Columns and labels:
[1] = biological target: T1, DCL1-A (first dsRBD) (Arabidopsis thaliana) (UniProt Q9SP32); assay: fluorescence anisotropy; conditions: FA: 10 mM phosphate pH 7.0, 50 nM labeled nucleic acid, temperature not stated; CD: 10 mM phosphate pH 7; NMR complex: 20 mM phosphate pH 7.0, 5 mM TCEP
T1 sequence: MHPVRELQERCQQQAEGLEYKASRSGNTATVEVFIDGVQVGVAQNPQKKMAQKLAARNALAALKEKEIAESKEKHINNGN

[2] = biological target: T2, DCL1-AB (both dsRBDs) (Arabidopsis thaliana) (UniProt Q9SP32); assay: fluorescence anisotropy; conditions: FA: 10 mM phosphate pH 7.0, 50 nM labeled nucleic acid, temperature not stated; CD: 10 mM phosphate pH 7; NMR complex: 20 mM phosphate pH 7.0, 5 mM TCEP
T2 sequence: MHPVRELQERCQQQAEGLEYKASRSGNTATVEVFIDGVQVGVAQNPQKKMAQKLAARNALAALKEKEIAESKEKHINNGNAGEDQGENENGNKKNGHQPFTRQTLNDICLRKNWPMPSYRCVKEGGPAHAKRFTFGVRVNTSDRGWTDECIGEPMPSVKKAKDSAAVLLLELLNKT

| Substance | Kd [1] | Kd [2] |
| --- | --- | --- |
| miR172a stem-loop (miRNA/miRNA* region) | 723 nM | 67 nM |
| dsDNA | 860 nM | 680 nM |
